Values quoted from earlier work, collected in article PMC11533685.

How the values were obtained:
CD58 ECD (Homo sapiens) = CD58 ECD (Homo sapiens) (UniProt P19256); experiment: SPR
CD200R ECD = CD200R ECD (UniProt Q8TD46); experiment: SPR
Sequence of UniProt Q8TD46 (Q8TD46 25-265): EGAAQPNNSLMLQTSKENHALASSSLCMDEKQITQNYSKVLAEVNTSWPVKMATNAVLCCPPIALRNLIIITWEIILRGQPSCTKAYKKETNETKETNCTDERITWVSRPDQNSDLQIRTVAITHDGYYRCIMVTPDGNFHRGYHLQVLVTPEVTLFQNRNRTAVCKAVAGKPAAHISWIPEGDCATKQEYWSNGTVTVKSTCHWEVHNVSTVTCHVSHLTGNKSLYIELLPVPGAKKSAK

Sequence of UniProt P19256 (P19256 29-215): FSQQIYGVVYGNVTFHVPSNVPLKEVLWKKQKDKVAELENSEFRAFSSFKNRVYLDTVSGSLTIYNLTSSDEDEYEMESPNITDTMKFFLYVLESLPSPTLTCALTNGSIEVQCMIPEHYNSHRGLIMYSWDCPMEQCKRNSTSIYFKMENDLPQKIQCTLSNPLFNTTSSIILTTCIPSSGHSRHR

| Substance | Kd (CD58 ECD (Homo sapiens)) | Kd (CD200R ECD) |
| --- | --- | --- |
| CD2 ECD (from UniProt P06729) | 10 µM |  |
| CD200 ECD (from UniProt P41217) |  | 1 µM |
